Data taken from patent publication US7169891B2, “Human pellino polypeptides” (Immunex Corporation, priority 2000, dated 2007).
“Also recorded” adds a separate entry of the source. Non-standard residues stand in square brackets, D forms with d. Residues, ends and D or L forms follow the SMILES beside them. Nle = CCCC[C@H](N)C(=O)O

Experiments:
[1] = tested on: Pellino-1 Cleavage and Relocation; experiment: Effect of protease and other inhibitors on PMA-induced Pellino-1 cleavage and relocation in COS7 cells; assay type: cell-based, monkey; details: for Effect on Pellino-1 Cleavage and Relocation: COS7 cells treated with PMA
Experimental: In an effort to determine which protease might be involved in the regulation of Pellino-1 cleavage, COS7 cells transfected with a Pellino-1-expressing construct were treated with PMA together with inhibitors of different classes of proteinases as shown in Table 3 below.

[2] = tested on: NF-kB-dependent reporter gene; experiment: NF-kB-dependent reporter gene (luciferase) assay in transfected COS cells; assay type: cell-based, monkey; details: for Effect on Reporter Gene: NF-kB-dependent reporter gene activity, form of murine Pellino-1 expressed in COS cells
Excerpt: The murine Pellino-1 coding sequence DNA was fused, in frame at the 3′ end, to DNA encoding the FLAG epitope, followed by an in-frame stop codon. This construct was cloned into the mammalian expression vector pDC304 (identical to pDC302, described in U.S. Pat. No. 5,599,905, issued Feb. 4, 1997, except that the early splice region, consisting of splice donor and acceptor sites of the SV40 viral element, has been removed); and transfected into an IL-1-responsive line of COS-7 cells by the DEAE-dextran method.
In order to assay the effect of the Pellino-1-FLAG polypeptide and other forms of Pellino polypeptides on reporter gene activity, a method essentially as described in Born et al., 1998, J. Biol. Cheni. 273: 29445–29450 (which is incorporated by reference herein) can be used. As one example of this method, Cos7 cells were transiently transfected by the DEAE-dextran method as described (Cosman et al., 1984, Nature 312: 768–771, which is incorporated by reference herein), using 150 ng of the Pellino polypeptide expression construct and 700 ng of the reporter plasmid per 45,000 cells. Two days post-transfection, cells were stimulated with 10 ng/ml IL-1 or 40 ng/ml IL-18 (PeproTech, Inc.) for 4 hours. Cells were lysed and luciferase activity assessed using Reporter Lysis Buffer and Luciferase Assay Reagent (Promega Corp.). IL-8 promoter-reporter and NFkB-dependent reporter constructs may be used as reporter plasmids. Alternatively, the effect of Pellino polypeptide expression may be assayed in COS-1 cells. In an alternative preferred method, COS7 cells were grown in 12-well dishes as described above. The cells were transiently transfected with Pellino test plasmid, 50 ng of reporter plasmid DNA, and empty vector, as required, to a total of 1 micrograms of total DNA per well. After 24 hours, stimulating agents were added in a small amount (less than 0.5% final volume) of medium or dimethyl sulfoxide, and the cells were re-incubated for 5 hours. Cells were lysed in luciferase Reporter Lysis Buffer (Promega, Madison Wis., 0.25 ml per well) and luciferase activity was measured in a EG & G/Berthold luminometer after addition of Luciferase Assay Reagent (Promega) according to the supplier's instructions. All results were normalized to total protein content of the lysates as measured using the micro-BCA assay (Pierce, Rockford, Ill).

Row | Molecule | Effect on Reporter Gene [2] | also measured
1 | CCCC[C@@H](C=O)NC(=O)[C@H](CC(C)C)NC(=O)[C@H](CC(C)C)NC(C)=O [ALLN] (Ac-Leu-Leu-[Nle]-aldehyde) | – | Effect on Pellino-1 Cleavage and Relocation ([1]; inhibitor 20 microM): none
2 | C[C@@H]1C[C@@H]([C@H](O)CC2CC(=O)NC(=O)C2)C(=O)[C@@H](C)C1 [Cycloheximide] | – | Effect on Pellino-1 Cleavage and Relocation ([1]; inhibitor 40 microM): inhibition; PMA-induced Pellino-1 cleavage (and relocation) ([1]; treatment of FLAG-Pellino-1-transfected COS7 cells with the inhibitor): largely prevented; also recorded: completely prevented
3 | CC(=O)N[C@@H](CSC(=O)[C@]1([C@@H](O)C(C)C)NC(=O)[C@H](C)[C@@H]1O)C(=O)O [Lactacystin] | – | Effect on Pellino-1 Cleavage and Relocation ([1]; inhibitor 20 microM): none
4 | 1–350: murine Pellino-1, only amino acids 1–350 present (protein, UniProt Q8C669 1-350, looked up, fragment) MFSPDQENHPSKAPVKYGELIVLGYNGSLPNGDRGRRKSRFALFKRPKANGVKPSTVHIACTPQAAKAISNKDQHSISYTLSRAQTVVVEYTHDSNTDMFQIGRSTESPIDFVVTDTVPGSQSNSDTQSVQSTISRFACRIICERSPPFTARIYAAGFDSSKNIFLGEKAAKWKTSDGQMDGLTTNGVLVMHPRNGFTEDSKPGIWREISVCGNVFSLRETRSAQQRGKMVEIETNQLQDGSLIDLCGATLLWRTAEGLSHTPTVKHLEALRQEINAARPQCPVGFNTLAFPSMKRKDVVDEKQPWVYLNCGHVHGYHNWGNKEERDGKDRECPMCRSVGPYVPLWLGCE | inactive | –
5 | dN230-FLAG: murine Pellino-1-FLAG, N-terminal 230 amino acids deleted (protein, UniProt Q8C669 231-418, looked up, fragment, FLAG tag, murine Pellino-1-FLAG, N-terminal 230 amino acids deleted) VEIETNQLQDGSLIDLCGATLLWRTAEGLSHTPTVKHLEALRQEINAARPQCPVGFNTLAFPSMKRKDVVDEKQPWVYLNCGHVHGYHNWGNKEERDGKDRECPMCRSVGPYVPLWLGCEAGFYVDAGPPTHAFSPCGHVCSEKTTAYWSQIPLPHGTHTFHAACPFCAHQLAGEQGYIRLIFQGPLD | inactive | –
6 | dN180-FLAG: murine Pellino-1-FLAG, N-terminal 180 amino acids deleted (protein, UniProt Q8C669 181-418, looked up, fragment, FLAG tag, murine Pellino-1-FLAG, N-terminal 180 amino acids deleted) DGLTTNGVLVMHPRNGFTEDSKPGIWREISVCGNVFSLRETRSAQQRGKMVEIETNQLQDGSLIDLCGATLLWRTAEGLSHTPTVKHLEALRQEINAARPQCPVGFNTLAFPSMKRKDVVDEKQPWVYLNCGHVHGYHNWGNKEERDGKDRECPMCRSVGPYVPLWLGCEAGFYVDAGPPTHAFSPCGHVCSEKTTAYWSQIPLPHGTHTFHAACPFCAHQLAGEQGYIRLIFQGPLD | inactive | –
7 | dN99-FLAG: murine Pellino-1-FLAG, N-terminal 99 amino acids deleted (protein, UniProt Q8C669 100-418, looked up, fragment, FLAG tag, murine Pellino-1-FLAG, N-terminal 99 amino acids deleted) FQIGRSTESPIDFVVTDTVPGSQSNSDTQSVQSTISRFACRIICERSPPFTARIYAAGFDSSKNIFLGEKAAKWKTSDGQMDGLTTNGVLVMHPRNGFTEDSKPGIWREISVCGNVFSLRETRSAQQRGKMVEIETNQLQDGSLIDLCGATLLWRTAEGLSHTPTVKHLEALRQEINAARPQCPVGFNTLAFPSMKRKDVVDEKQPWVYLNCGHVHGYHNWGNKEERDGKDRECPMCRSVGPYVPLWLGCEAGFYVDAGPPTHAFSPCGHVCSEKTTAYWSQIPLPHGTHTFHAACPFCAHQLAGEQGYIRLIFQGPLD | Inhibitory | –
8 | wild-type Pellino-2: wild-type Pellino-2 polypeptide expressed in COS cells; species not stated at the result (protein, UniProt Q9HAT8 1-420, looked up) E3 ubiquitin-protein ligase …: MFSPGQEEHCAPNKEPVKYGELVVLGYNGALPNGDRGRRKSRFALYKRPKANGVKPSTVHVISTPQASKAISCKGQHSISYTLSRNQTVVVEYTHDKDTDMFQVGRSTESPIDFVVTDTISGSQNTDEAQITQSTISRFACRIVCDRNEPYTARIFAAGFDSSKNIFLGEKAAKWKNPDGHMDGLTTNGVLVMHPRGGFTEESQPGVWREISVCGDVYTLRETRSAQQRGKLVESETNVLQDGSLIDLCGATLLWRTADGLFHTPTQKHIEALRQEINAARPQCPVGLNTLAFPSINRKEVVEEKQPWAYLSCGHVHGYHNWGHRSDTEANERECPMCRTVGPYVPLWLGCEAGFYVDAGPPTHAFTPCGHVCSEKSAKYWSQIPLPHGTHAFHAACPFCATQLVGEQNCIKLIFQGPID | – | NFkB-dependent reporter gene activity ([2]; COS cells transfected with high concentrations of expressing construct): inhibitory effect
9 | dN50-FLAG: murine Pellino-1-FLAG, N-terminal 50 amino acids deleted (protein, UniProt Q8C669 51-418, looked up, fragment, FLAG tag, murine Pellino-1-FLAG, N-terminal 50 amino acids deleted) GVKPSTVHIACTPQAAKAISNKDQHSISYTLSRAQTVVVEYTHDSNTDMFQIGRSTESPIDFVVTDTVPGSQSNSDTQSVQSTISRFACRIICERSPPFTARIYAAGFDSSKNIFLGEKAAKWKTSDGQMDGLTTNGVLVMHPRNGFTEDSKPGIWREISVCGNVFSLRETRSAQQRGKMVEIETNQLQDGSLIDLCGATLLWRTAEGLSHTPTVKHLEALRQEINAARPQCPVGFNTLAFPSMKRKDVVDEKQPWVYLNCGHVHGYHNWGNKEERDGKDRECPMCRSVGPYVPLWLGCEAGFYVDAGPPTHAFSPCGHVCSEKTTAYWSQIPLPHGTHTFHAACPFCAHQLAGEQGYIRLIFQGPLD | Inhibitory | –
10 | 1–250: murine Pellino-1, only amino acids 1–250 present (protein, UniProt Q8C669 1-250, looked up, fragment) MFSPDQENHPSKAPVKYGELIVLGYNGSLPNGDRGRRKSRFALFKRPKANGVKPSTVHIACTPQAAKAISNKDQHSISYTLSRAQTVVVEYTHDSNTDMFQIGRSTESPIDFVVTDTVPGSQSNSDTQSVQSTISRFACRIICERSPPFTARIYAAGFDSSKNIFLGEKAAKWKTSDGQMDGLTTNGVLVMHPRNGFTEDSKPGIWREISVCGNVFSLRETRSAQQRGKMVEIETNQLQDGSLIDLCGAT | inactive | –
11 | Y154A-FLAG: murine Pellino-1-FLAG, Tyr to Ala substitution at residue 154 (protein, UniProt Q8C669 1-418, looked up, variant Y154A, FLAG tag) E3 ubiquitin-protein ligase …: MFSPDQENHPSKAPVKYGELIVLGYNGSLPNGDRGRRKSRFALFKRPKANGVKPSTVHIACTPQAAKAISNKDQHSISYTLSRAQTVVVEYTHDSNTDMFQIGRSTESPIDFVVTDTVPGSQSNSDTQSVQSTISRFACRIICERSPPFTARIAAAGFDSSKNIFLGEKAAKWKTSDGQMDGLTTNGVLVMHPRNGFTEDSKPGIWREISVCGNVFSLRETRSAQQRGKMVEIETNQLQDGSLIDLCGATLLWRTAEGLSHTPTVKHLEALRQEINAARPQCPVGFNTLAFPSMKRKDVVDEKQPWVYLNCGHVHGYHNWGNKEERDGKDRECPMCRSVGPYVPLWLGCEAGFYVDAGPPTHAFSPCGHVCSEKTTAYWSQIPLPHGTHTFHAACPFCAHQLAGEQGYIRLIFQGPLD | Stimulatory | –
12 | F158A-FLAG: murine Pellino-1-FLAG, Phe to Ala substitution at residue 158 (protein, UniProt Q8C669 1-418, looked up, variant F158A, FLAG tag) E3 ubiquitin-protein ligase …: MFSPDQENHPSKAPVKYGELIVLGYNGSLPNGDRGRRKSRFALFKRPKANGVKPSTVHIACTPQAAKAISNKDQHSISYTLSRAQTVVVEYTHDSNTDMFQIGRSTESPIDFVVTDTVPGSQSNSDTQSVQSTISRFACRIICERSPPFTARIYAAGADSSKNIFLGEKAAKWKTSDGQMDGLTTNGVLVMHPRNGFTEDSKPGIWREISVCGNVFSLRETRSAQQRGKMVEIETNQLQDGSLIDLCGATLLWRTAEGLSHTPTVKHLEALRQEINAARPQCPVGFNTLAFPSMKRKDVVDEKQPWVYLNCGHVHGYHNWGNKEERDGKDRECPMCRSVGPYVPLWLGCEAGFYVDAGPPTHAFSPCGHVCSEKTTAYWSQIPLPHGTHTFHAACPFCAHQLAGEQGYIRLIFQGPLD | Slightly | –
13 | F165L-FLAG: murine Pellino-1-FLAG, Phe to Leu substitution at residue 165 (protein, UniProt Q8C669 1-418, looked up, variant F165L, FLAG tag) E3 ubiquitin-protein ligase …: MFSPDQENHPSKAPVKYGELIVLGYNGSLPNGDRGRRKSRFALFKRPKANGVKPSTVHIACTPQAAKAISNKDQHSISYTLSRAQTVVVEYTHDSNTDMFQIGRSTESPIDFVVTDTVPGSQSNSDTQSVQSTISRFACRIICERSPPFTARIYAAGFDSSKNILLGEKAAKWKTSDGQMDGLTTNGVLVMHPRNGFTEDSKPGIWREISVCGNVFSLRETRSAQQRGKMVEIETNQLQDGSLIDLCGATLLWRTAEGLSHTPTVKHLEALRQEINAARPQCPVGFNTLAFPSMKRKDVVDEKQPWVYLNCGHVHGYHNWGNKEERDGKDRECPMCRSVGPYVPLWLGCEAGFYVDAGPPTHAFSPCGHVCSEKTTAYWSQIPLPHGTHTFHAACPFCAHQLAGEQGYIRLIFQGPLD | Stimulatory | –
